The target in assay [1] is EGFR coated on the plate (competitive binding test) (UniProt P00533). The assay can be described thus: competitive ELISA on plate-coated EGFR; competitor cetuximab at […]; antibody:ligand molar ratio 1:10^5; remaining antibody binding. A general note: In an ELISA, binding on a coated surface is turned into a signal by an enzyme label.
Assay [2] has the same target. The assay can be described thus: competitive ELISA on plate-coated EGFR; competitor cetuximab at […]; antibody:ligand molar ratio 1:10^4; remaining antibody binding.
The target is the same in assay [3]. Kind of assay: competitive ELISA on plate-coated EGFR; competitor GC1118 at […]; antibody:ligand molar ratio 1:10^5; remaining antibody binding.
Assay [4] shares this target. Kind of assay: competitive ELISA on plate-coated EGFR; competitor GC1118 at […]; antibody:ligand molar ratio 1:10^4; remaining antibody binding.
The target in assay [5] is T1, EGFR coated on the plate (competitive binding test) (UniProt P00533 25-645, limits assumed). Kind of assay: competitive ELISA on plate-coated EGFR; competitor cetuximab at 1.5 nM; antibody:ligand molar ratio 1:10^5; remaining antibody binding.
For assay [6], the target named is T1, EGFR coated on the plate (competitive …). The assay can be described thus: competitive ELISA on plate-coated EGFR; competitor GC1118 at 1.5 nM; antibody:ligand molar ratio 1:10^4; remaining antibody binding.
For assay [7] the target is unchanged. The assay can be described thus: competitive ELISA on plate-coated EGFR; competitor cetuximab at 1.5 nM; antibody:ligand molar ratio 1:10^4; remaining antibody binding.
For assay [8] the target is unchanged. Kind of assay: competitive ELISA on plate-coated EGFR; competitor GC1118 at 1.5 nM; antibody:ligand molar ratio 1:10^5; remaining antibody binding.

On to “Amphiregulin (from UniProt P15514 101-198) (ligand)”, for which the Antibody binding (%) in assay [1] worked out at 99.9%; in assay [2] it was 96.6%; in assay [3] it was 99.9%; in assay [4], 99.6%.

B1: Heparin-binding EGF-like growth factor (ligand, human, UniProt Q99075 63-148, looked up)
chain: DLQEADLDLLRVTLSSKPQALATPNKEEHGKRKKKGKGLGKKRDPCLRKYKDFCIHGECKYVKELRAPSCICHPGYHGERCHGLSL
notes: also called HB-EGF
Regarding B1, the “Antibody binding (%)” value turned out to be 76.1% in assay [5], 65.1% in assay [6], 96.2% in assay [7] and 31.2% in assay [8].

B2: β-Cellulin (ligand, human, UniProt P35070 32-111, looked up)
chain: DGNSTRSPETNGLLCGDPEENCAATTTQSKRKGHFSRCPKQYKHYCIKGRCRFVVAEQTPSCVCDEGYIGARCERVDLFY
notes: also called BTC; betacellulin
Regarding B2, the “Antibody binding (%)” value is 51.1% in assay [5], 40.4% in assay [6], 80.2% in assay [7] and 18.9% in assay [8].

These data come from patent publication US20150231220A1 (GREEN CROSS, published 2015).
